# Data from patent publication US20190071480A1 (Biogen, published 2019).
# T1: extracellular domain of activin receptor type IIB (ActRIIBecd), biotinylated (Homo sapiens (Human), UniProt Q13705 27-117, amino-biotinylated with amine-PEG3-Biotin)
# T1 construct: immobilised on a streptavidin-coated sensor chip; also called biotinylated ActRIIBecd; extracellular domain of ActRIIB
# T1 sequence: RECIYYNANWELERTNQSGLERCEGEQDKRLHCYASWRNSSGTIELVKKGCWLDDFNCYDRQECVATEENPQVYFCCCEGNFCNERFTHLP
# B1: Recombinant polypeptide of clones 18 + 17 (designed binder)
# chain: VDFSDVGWNDHAVAPPGYHAFYCHGECPFPLADHLNSTNHAIVQTLVNSVVDFSDVGWNDWIVAPPGYHAFYCHGECPFPLADHLNSDNHAIVQTLVNSV
# B2: SEQ ID NO: 316, cysteine pairs C67-C71^a, C8-C41^a, C9-C43^a, C109-C109^b (designed binder)
# chain: NSKDPKACCVPTELSAPSPLYLDENEKPVLKNYQDMVVHGCGCRVDFKDVGWNDHAVAPPGYHAFYCHGECPFPLADHLNSDNHAIVQTKVNSVGQAKRKGYKRLKSSCKRHPLY
# modifications: disulfides C67-C71 (intra), C8-C41 (intra), C9-C43 (intra), C109-C109 (inter)
# notes: homodimer by intermolecular disulfide
# B3: SEQ ID NO: 292, cysteine pairs C80-C114^a, C79-C112^a, C44-C48^a (designed binder)
# chain: GQAKRKGYKRLKSSCKRHPLYVDFKDVGWNDHAVAPPGYHAFYCHGECPFPLADHLNSDNHAIVQTKVNSVNSKDPKACCVPTELSAPSPLYLDENEKPVLKNYQDMVVHGCGCR
# modifications: disulfides C80-C114 (intra), C79-C112 (intra), C44-C48 (intra)
# B4: SEQ ID NO: 324, cysteine pairs C15-C15^b, C80-C114^b, C79-C112^b, C44-C48^a (designed binder)
# chain: AQAKHKQRKRLKSSCKRHPLYVDFKDVGWNDHAVAPPGYHAFYCHGECPFPLADHLNSDNHAIVQTKVNSVNSKIPKACCVPTELSAISMLYLDENEKVVLKNYQDMVVEGCGCR
# modifications: disulfides C15-C15 (inter), C80-C114 (inter), C79-C112 (inter), C44-C48 (intra)
# notes: as for B2
# B5: Clone No. 30 domain (ActRIIBecd-associated polypeptide) (peptide)
# chain: TALDGTRGAQGSGGGGGGGGGGGGGGGGGGGGAGRGHGRRGRSRCSRKSLHVDFKELG
# B6: SEQ ID NO: 276, cysteine pairs C67-C71^a, C8-C41^b, C9-C43^b, C109-C109^b (designed binder)
# chain: NSKIPKACCVPTELSAISMLYLDENEKVVLKNYQDMVVEGCGCRVDFSDVGWNDWIVAPPGYHAFYCHGECPFPLADHLNSTNHAIVQTLVNSVAQAKHKQRKRLKSSCKRHPLY
# modifications: disulfides C67-C71 (intra), C8-C41 (inter), C9-C43 (inter), C109-C109 (inter)
# notes: as for B2
# B7: Recombinant polypeptide of clones 21 + 15 + 10 (designed binder)
# chain: NSKIPKACCVPTELSAISMLYLDENEKVVLKNYQDMVVEGCGCRVDFSDVGWNDWIVAPPGYHAFYCHGECPFPLADHLNSTNHAIVQTLVNSVAQAKHKQRKRLKSSCKRHPLY
# B8: SEQ ID NO: 200, cysteine pairs C23-C27^a, C58-C91^a, C59-C93^a (designed binder)
# chain: VDFSDVGWNDWIVAPPGYHAFYCHGECPFPLADHLNSTNHAIVQTLVNSVNSKIPKACCVPTELSAISMLYLDENEKVVLKNYQDMVVEGCGCR
# modifications: disulfides C23-C27 (intra), C58-C91 (intra), C59-C93 (intra)
# B9: SEQ ID NO: 200, cysteine pairs C23-C27^a, C58-C93^a, C59-C91^a (designed binder)
# chain: VDFSDVGWNDWIVAPPGYHAFYCHGECPFPLADHLNSTNHAIVQTLVNSVNSKIPKACCVPTELSAISMLYLDENEKVVLKNYQDMVVEGCGCR
# modifications: disulfides C23-C27 (intra), C58-C93 (intra), C59-C91 (intra)
# B10: SEQ ID NO: 200, cysteine pairs C23-C27^a, C58-C91^b, C59-C93^b (designed binder)
# chain: VDFSDVGWNDWIVAPPGYHAFYCHGECPFPLADHLNSTNHAIVQTLVNSVNSKIPKACCVPTELSAISMLYLDENEKVVLKNYQDMVVEGCGCR
# modifications: disulfides C23-C27 (intra), C58-C91 (inter), C59-C93 (inter)
# notes: as for B2
# B11: SEQ ID NO: 200, cysteine pairs C23-C58^a (designed binder)
# chain: VDFSDVGWNDWIVAPPGYHAFYCHGECPFPLADHLNSTNHAIVQTLVNSVNSKIPKACCVPTELSAISMLYLDENEKVVLKNYQDMVVEGCGCR
# modifications: disulfides C23-C58 (intra)
# B12: SEQ ID NO: 206, cysteine pairs C67-C71^a, C8-C41^a, C9-C43^a (designed binder)
# chain: NSKIPKACCVPTELSAISMLYLDENEKVVLKNYQDMVVEGCGCRVDFSDVGWNDWIVAPPGYHAFYCHGECPFPLADHLNSTNHAIVQTLVNSV
# modifications: disulfides C67-C71 (intra), C8-C41 (intra), C9-C43 (intra)
# B13: SEQ ID NO: 300, cysteine pairs C23-C79^a (designed binder)
# chain: VDFKDVGWNDHAVAPPGYHAFYCHGECPFPLADHLNSDNHAIVQTKVNSVGQAKRKGYKRLKSSCKRHPLYNSKDPKACCVPTELSAPSPLYLDENEKPVLKNYQDMVVHGCGCR
# modifications: disulfides C23-C79 (intra)
# B14: SEQ ID NO: 300, cysteine pairs C23-C27^a, C65-C65^b, C79-C112^b, C80-C114^b (designed binder)
# chain: VDFKDVGWNDHAVAPPGYHAFYCHGECPFPLADHLNSDNHAIVQTKVNSVGQAKRKGYKRLKSSCKRHPLYNSKDPKACCVPTELSAPSPLYLDENEKPVLKNYQDMVVHGCGCR
# modifications: disulfides C23-C27 (intra), C65-C65 (inter), C79-C112 (inter), C80-C114 (inter)
# notes: as for B2
# B15: SEQ ID NO: 268, cysteine pairs C23-C27^a, C65-C65^b, C79-C114^b, C80-C112^b (designed binder)
# chain: VDFSDVGWNDWIVAPPGYHAFYCHGECPFPLADHLNSTNHAIVQTLVNSVAQAKHKQRKRLKSSCKRHPLYNSKIPKACCVPTELSAISMLYLDENEKVVLKNYQDMVVEGCGCR
# modifications: disulfides C23-C27 (intra), C65-C65 (inter), C79-C114 (inter), C80-C112 (inter)
# notes: as for B2
# B16: Recombinant polypeptide of clones 15 + 10 (designed binder)
# chain: VDFSDVGWNDWIVAPPGYHAFYCHGECPFPLADHLNSTNHAIVQTLVNSVAQAKHKQRKRLKSSCKRHPLY
# B17: SEQ ID NO: 188, cysteine pairs C44-C48^a (designed binder)
# chain: AQAKHKQRKRLKSSCKRHPLYVDFSDVGWNDWIVAPPGYHAFYCHGECPFPLADHLNSTNHAIVQTLVNSV
# modifications: disulfides C44-C48 (intra)
# Key:
# [1] = biological target: T1, extracellular domain of activin …; assay: BIAcore SPR, biotinylated ActRIIBecd on chip; SD ±16.41 nM
# Description: (§1) Biosensor experiments. In one embodiment, experiments were performed on a BIAcore™ T100/T200 instrument (Pharmacia Biosensor AB) in the multichannel mode (serial flow path involving flow cells 1+2+3+4). Flow rate was 10 μl/min; temperature was 25° C.; and data were recorded at 2.5 points/s. All four segments of a sensor chip CMS were coated with streptavidin (Sigma) to a density of 2000 pg/mm² (2000 resonance units) by the aminocoupling procedure. ActRIIBecd (10 mg) and amine-PEG3-Biotin (10 mg, Pierce, Rockford, Ill.) were dissolved in 200 μl H₂O and 10 mg NaCNBH₃ was added to prepare biotinylated ActRIIBecd. The reaction mixture was heated at 70° C. for 24 h, after that a further 10 mg NaCNBH₃ was added and the reaction was heated at 70° C. for another 24 h. After cooling to room temperature, the mixture was desalted with the spin column (3,000 molecular weight cut off (MWCO)). […] Sensograms were recorded during flow of the analyte (the ActRIIBecd-associated polypeptides (i.e., domains) as previously described) first through flow cell 1 (control) then through flow cell 2 (biotinylated ActRIIBecd). […] The sensograms obtained at 1.11, 3.33, 10, 30, and 90 nM analyte were evaluated for equilibrium binding, association rate, and dissociation rate by using the programs supplied with the instrument (BIA evaluation 2.1; Software Handbook. 1995; Pharmacia Biosensor AB).
# [2] = biological target: T1, extracellular domain of activin …; assay: BIAcore SPR as Example 5 (method not restated); SD ±1.37 nM
# Description: as §1
# [3] = biological target: T1, extracellular domain of activin …; assay: Mean KD column of Table 5; method not restated (BIAcore as Example 5); species also listed in Table 4
# Description: Biosensor experiments. In one embodiment, experiments were performed on a BIAcore™ T100/T200 instrument (Pharmacia Biosensor AB) in the multichannel mode (serial flow path involving flow cells 1+2+3+4). Flow rate was 10 μl/min; temperature was 25° C.; and data were recorded at 2.5 points/s. All four segments of a sensor chip CMS were coated with streptavidin (Sigma) to a density of 2000 pg/mm² (2000 resonance units) by the aminocoupling procedure. ActRIIBecd (10 mg) and amine-PEG3-Biotin (10 mg, Pierce, Rockford, Ill.) were dissolved in 200 μl H₂O and 10 mg NaCNBH₃ was added to prepare biotinylated ActRIIBecd. The reaction mixture was heated at 70° C. for 24 h, after that a further 10 mg NaCNBH₃ was added and the reaction was heated at 70° C. for another 24 h. After cooling to room temperature, the mixture was desalted with the spin column (3,000 molecular weight cut off (MWCO)). Biotinylated ActRIIBecd was collected, freeze-dried and used for streptavidin (SA) chip preparation. Amino-biotinylated ActRIIBecd was then immobilized independently on flow cells 2-4 for 10 minutes at a flow rate of 5 μL/min and a concentration of 20 μM in 10 mM sodium acetate, pH 4.0, at a density of 50-250 resonance units (RU). The stored polypeptides were dissolved in glycine buffer (2.5 g of glycine, 0.5 g of sucrose, 370 mg of L-glutamate, 10 mg of sodium chloride, and 10 mg of Tween 80 in 100 mL water, pH 4.5) to prepare 10 mg/mL solution and then diluted with previous glycine buffer to prepare analytes with various concentration. Sensograms were recorded during flow of the analyte (the ActRIIBecd-associated polypeptides (i.e., domains) as previously described) first through flow cell 1 (control) then through flow cell 2 (biotinylated ActRIIBecd). The sensogram obtained for flow cell 1 was subtracted from the sensogram obtained for flow cell 2. The sensograms obtained at 1.11, 3.33, 10, 30, and 90 nM analyte were evaluated for equilibrium binding, association rate, and dissociation rate by using the programs supplied with the instrument (BIA evaluation 2.1; Software Handbook. 1995; Pharmacia Biosensor AB).
# [4] = biological target: T1, extracellular domain of activin …; assay: BIAcore SPR as Example 5 (method not restated); SD ±1.77 nM
# Description: as §1
# [5] = biological target: T1, extracellular domain of activin …; assay: BIAcore SPR, biotinylated ActRIIBecd on chip; SD ±14.11 nM
# Description: as §1
# [6] = biological target: T1, extracellular domain of activin …; assay: BIAcore SPR, biotinylated ActRIIBecd on chip; SD ±13.51 nM
# Description: as §1
# [7] = biological target: T1, extracellular domain of activin …; assay: BIAcore SPR as Example 5 (method not restated); SD ±1.41 nM
# Description: as §1
# [8] = biological target: T1, extracellular domain of activin …; assay: BIAcore SPR as Example 5 (method not restated); SD ±2.06 nM
# Description: as §1
# [9] = biological target: T1, extracellular domain of activin …; assay: BIAcore SPR as Example 5 (method not restated); SD ±1.98 nM
# Description: as §1
# [10] = biological target: T1, extracellular domain of activin …; assay: BIAcore SPR as Example 5 (method not restated); SD ±2.89 nM
# Description: as §1
# [11] = biological target: T1, extracellular domain of activin …; assay: BIAcore SPR as Example 5 (method not restated); SD ±3.12 nM
# Description: as §1
# [12] = biological target: T1, extracellular domain of activin …; assay: BIAcore SPR, biotinylated ActRIIBecd on chip; SD ±12.12 nM
# Description: as §1
# [13] = biological target: T1, extracellular domain of activin …; assay: BIAcore SPR as Example 5 (method not restated); SD ±2.45 nM
# Description: as §1
# [14] = biological target: T1, extracellular domain of activin …; assay: BIAcore SPR as Example 5 (method not restated); SD ±1.72 nM
# Description: as §1
binder,measurement,setting,value
B1,Kd,[1],66.4 nM
B2,Kd,[2],5.34 nM
same,Kd,[3],5.34 nM
B3,Kd,[2],6.19 nM
same,Kd,[3],6.19 nM
B4,Kd,[4],9.11 nM
same,Kd,[3],9.11 nM
VDFSDVGWNDWIVAPPGYHAFYCHGECPFPLADHLNSTNHAIVQTLVNSV [Clone No. 15 domain (ActRIIBecd-associated polypeptide)],Kd,[5],39.5 nM
B5,Kd,[1],61.7 nM
B6,Kd,[4],8.13 nM
same,Kd,[3],8.13 nM
B7,Kd,[6],14.2 nM
B8,Kd,[7],18.6 nM
same,Kd,[3],18.6 nM
B9,Kd,[8],20.1 nM
same,Kd,[3],20.1 nM
B10,Kd,[9],19.8 nM
same,Kd,[3],19.8 nM
B11,Kd,[10],47.6 nM
same,Kd,[3],47.6 nM
B12,Kd,[11],15.5 nM
same,Kd,[3],15.5 nM
AQAKHKQRKRLKSSCKRHPLY [Clone No. 10 domain (ActRIIBecd-associated polypeptide)],Kd,[12],36.4 nM
B13,Kd,[13],32.7 nM
same,Kd,[3],32.7 nM
B14,Kd,[14],6.44 nM
same,Kd,[3],6.44 nM
B15,Kd,[13],8.03 nM
same,Kd,[3],8.03 nM
TYPASPKPMRWKMRSCACCAGGLRNRTGTV [Clone No. 27 domain (ActRIIBecd-associated polypeptide)],Kd,[5],49.3 nM
B16,Kd,[6],29.7 nM
B17,Kd,[14],21.5 nM
same,Kd,[3],21.5 nM
